Measurements taken from patent US20090136516A1 (DUKE UNIVERSITY, published 2009).

How the values were obtained:
human CD20 [1] = target: T1, human CD20 (human, UniProt P11836 1-297); assay: indirect immunofluorescence, flow cytometry, DHL-4 cells, saturating mAb
T1 construct: whole, on cells; also called cell surface CD20
T1 sequence (looked up): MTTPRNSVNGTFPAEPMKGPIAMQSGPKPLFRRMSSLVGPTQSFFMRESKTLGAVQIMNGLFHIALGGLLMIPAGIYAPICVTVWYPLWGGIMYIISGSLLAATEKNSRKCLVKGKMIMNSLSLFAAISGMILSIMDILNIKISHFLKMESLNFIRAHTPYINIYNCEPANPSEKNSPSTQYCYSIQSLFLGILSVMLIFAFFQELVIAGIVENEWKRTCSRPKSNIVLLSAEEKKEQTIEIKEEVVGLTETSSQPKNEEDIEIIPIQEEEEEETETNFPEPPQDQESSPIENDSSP
Description: (§1) Reactivity of human blood lymphocytes and the Raji, BJAB or DHL-4 B lymphoblastoid cell lines with anti-CD20 monoclonal antibodies at saturating concentrations or with secondary antibody alone (control). The anti-CD20 monoclonal antibodies were used at concentrations that were determined to be saturating and that gave optimal staining. 1F5, B9E9 and 1H4 (IgG2a) monoclonal antibodies were used as ascites fluid diluted 1:200. HB20-3, -4 and -25 monoclonal antibodies were used as tissue culture supernatant fluid. B1 monoclonal antibody was used at either 10 μg/mL of purified monoclonal antibody or as tissue culture supernatant fluid. In all cases, monoclonal antibody staining was visualized using PE-conjugated isotype-specific secondary antibodies with flow cytometry analysis. Values represent the mean linear fluorescence intensity of staining for each B cell population as determined by flow cytometry analysis. Results are representative of those obtained in ≧3 experiments.

human CD20 [2] = target: T1, human CD20; assay: indirect immunofluorescence, flow cytometry, human blood B cells, saturating mAb
Description: as §1

human CD20 [3] = target: T1, human CD20; assay: indirect immunofluorescence, flow cytometry, Raji cells, saturating mAb
Description: as §1

human CD20 [4] = target: T1, human CD20; assay: indirect immunofluorescence, flow cytometry, BJAB cells, saturating mAb
Description: as §1

mouse CD20 = target: T2, mouse CD20 (mouse, UniProt P19437 1-291); assay: flow cytometry, mouse spleen CD19+ B cells, mAb at 0.5 µg/mL, isotype-specific secondary antibody
T2 construct: whole, on cells; Endogenous mouse CD20 on primary B cells; also called cell-surface CD20
T2 sequence (looked up): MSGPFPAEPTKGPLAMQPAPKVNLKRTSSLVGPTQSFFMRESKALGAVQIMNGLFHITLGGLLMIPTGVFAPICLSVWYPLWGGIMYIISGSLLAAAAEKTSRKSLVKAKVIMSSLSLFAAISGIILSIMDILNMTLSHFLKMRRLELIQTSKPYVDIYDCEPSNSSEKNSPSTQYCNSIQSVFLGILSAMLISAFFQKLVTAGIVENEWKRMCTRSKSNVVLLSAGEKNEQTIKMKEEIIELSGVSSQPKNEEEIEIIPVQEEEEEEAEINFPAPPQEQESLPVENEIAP
Description: Twelve mouse anti-mouse CD20 monoclonal antibodies, with representatives of each IgG isotype, were assessed for their ability to bind B cells and deplete them in vivo. Each monoclonal antibody reacted uniformly with CD19⁺ primary B cells in vitro with characteristic mean fluorescence intensities that were independent of monoclonal antibody isotype (FIG. 6A). When monoclonal antibody reactivity with primary B cells was assessed over a range of monoclonal antibody concentrations, most monoclonal antibodies reached saturating levels of staining when used at concentrations between 1-10 μg/mL (FIG. 6B). […] When all monoclonal antibodies were used at 0.5 μg/mL, each monoclonal antibody reacted uniformly with CD19⁺ primary B cells with characteristic low to high mean fluorescence intensities (FIG. 6C, Table 5). Similar results were obtained using a mouse CD20 cDNA-transfected pre-B cell line with anti-mouse Ig secondary antibody. Based on this analysis, the MB20-1 monoclonal antibody represented monoclonal antibodies with the lowest relative affinity/avidity, while the MB20-18 monoclonal antibody reacted strongly with B cells and stained B cells at the highest levels of all 12 anti-CD20 monoclonal antibodies (Table 5).

Molecule	B cell reactivity (mean linear fluorescence intensity) (mouse CD20)	mean linear fluorescence intensity (human CD20 [1])	mean linear fluorescence intensity (human CD20 [2])	mean linear fluorescence intensity (human CD20 [3])	mean linear fluorescence intensity (human CD20 [4])	also measured
B1 anti-CD20 monoclonal antibody						mean linear fluorescence intensity (mean linear fluorescence intensity) (human CD20 [1]): 486; mean linear fluorescence intensity (mean linear fluorescence intensity) (human CD20 [2]): 277; mean linear fluorescence intensity (mean linear fluorescence intensity) (human CD20 [3]): 944; mean linear fluorescence intensity (mean linear fluorescence intensity) (human CD20 [4]): 700
MB20-1 monoclonal antibody (antibody, V domains shown, Mouse anti-mouse CD20 hybridoma antibody, IgG1; also called MB20-01) VH: EVQLQESGGGLVQPGGSLKLSCAASGFTFSDYGMAWVRQAPRKGPEWVAFISNLAYSIYYADTVTGRFTISRENAKNTLYLEMSSLRSEDTAMYFCTRTGYYALDYWGQGTSVTVSS VL: NIMMTQSPSSLAVSAGEKVTMRCKSSQSVLYSSKRKNYLAWYQQKPGKSPTLLIYWASTRESGVPDRFTGSGSGTDFTLTITSVQAEDLAVYYCHQYLSSFTFGGGTKLEIKR	69 mean linear fluorescence intensity					
MB20-13 monoclonal antibody (antibody, V domains shown, Mouse anti-mouse CD20 hybridoma antibody, IgG3) VH: EVQLQESGGGLVQPGGSLKLSCAASGFTFSDYGMAWVRQAPRKGPEWVAFISNLAYSIYYADTVTGRFTISRENAKNTLYLEMSSLRSEDTAMYFCTRTGYYALDYWGQGTSVTVSS VL: EIVLAQSPTTTAASPGEKITITCSASSSITSNYLHWYQQKPGFSPKLLIYRTSNLASGVPARFSGSGSGTSYSLTIGTMEAEDVATYYCQQGSSKTLTFGAGTKLELKR	603 mean linear fluorescence intensity					
HB20-3 monoclonal antibody (antibody, V domains shown, Used as tissue culture supernatant; also called HB20-03; HB13c) VH: EVQLQESGAELVKPGASVKMSCKASGFTFTNYNMHWLKQTPGQGLEWIGAIYPENGDTSYNQKFKGKATLTADKASSTAYMHLSSLTSEDSAVYFCARFYYYGSYYGAMDYWGQGTSVTVSS VL: DIQMTQSPASLSASVGETVTITCRASGNIHNYLAWYQQKQGKSPQLLVYNAKTLADGVPSRFSGSGSGTQFSLKINSLQPEDFGSYYCQHFWSTPWTFGGGTKLEIKR		765 mean linear fluorescence intensity	469 mean linear fluorescence intensity	2220 mean linear fluorescence intensity	1200 mean linear fluorescence intensity	
HB20-4 monoclonal antibody (antibody, V domains shown, Used as tissue culture supernatant; also called HB20-04; HB13d) VH: EVQLQESGAELVKPGASVKMSCKASGFTFTNYNMHWVKQTPGQGLEWIGAIYPENGDTSYNQRFKGKATLTADKSSSTAYMHLSSLTSEDTAVYFCARFYYYGSYYGALDYWGQGTSVTVSS VL: DIQMTQSPASLSASVGETVTITCRASGSIHNYLAWYQQKLGKSPQLLVYNAKTLADGVPSRFSGSGSGTQFSLKINSLQPEDFGSYYCQHFWSIPWTFGGGTKLEIKR		578 mean linear fluorescence intensity	397 mean linear fluorescence intensity	1580 mean linear fluorescence intensity	1100 mean linear fluorescence intensity	
HB20-25 monoclonal antibody (antibody, V domains shown, Used as tissue culture supernatant) VH: EVQLQESGAELVKPGASVKMSCKASGFRFTNYNLHWVKQTPGQGLEWIGAIYPGNGETSYNQKFKGKATLTADKSSSTAYMQLRSLTSGDSAVYYCARFYYYGSSYGAMDYWGQGTSVTVSS VL: DIQMTQSPASLSVSVGETVTITCRASENIYSNLAWYQQKQGKSPQLLVYAATNLADGVPSRFSGSGSGTQYSLKINSLQSEDFGSYYCQHFWGIPWTFGGGTKLEIKR		514 mean linear fluorescence intensity	227 mean linear fluorescence intensity	1350 mean linear fluorescence intensity	849 mean linear fluorescence intensity	
MB20-18 monoclonal antibody (antibody, V domains shown, Mouse anti-mouse CD20 hybridoma antibody, IgG2b) VH: EVQLQESGLDLVKPGASVKISCKASGYTFTDYYMKWVKQSHGKSLDWIGDINPNNGDIIYNQKFEGKATLTVDKSSSTAYMELRSLTSEDSAVYYCARERFAYWGQGTLVTVSA VL: SIVMTQTPKFLLVSTGDRVTITCKASQTVTNDLAWYQQKPGQSPKLLIYYASNRYTGVPDRFTGSGYGTDFTFTINTVQAEDLAVYFCQQDYSSPLTFGAGTKLELKR	729 mean linear fluorescence intensity					
MB20-10 monoclonal antibody (antibody, V domains shown, Mouse anti-mouse CD20 hybridoma antibody, IgG2b) VH: EVQLQESGPDLVKPGASVKISCKASGYTFTDYYMKWVKQSHGKSLDWIGDINPNNGDIIYNQKFEGKATLTVDKSSSTAYMELRSLTSEDSAVYYCARERFAYWGQGTLVTVSA VL: EIVLTQSPTTMAASPGEKITITCSVSSNIRSNYLHWYQQKPGFSPKLLIYRTSNLASGVPARFSGSGSGTSYSLTIGTMKAEDVATYYCQQGSSIPLTFGAGTKLELKR	317 mean linear fluorescence intensity					
MB20-14 monoclonal antibody (antibody, V domains shown, Mouse anti-mouse CD20 hybridoma antibody, IgG1) VH: EVQLQESGPELVKPGASVKISCKASGYMFTDYYIKWVKQSHGKSLEWIGDINPNNGDTIYNQKFKGKATLTVDKSSNTAYMDLRILTSEDSAVYYCARERFAYWGQGTLVTVSA VL: EIVLTQSPTTMAASPGEKITITCSVSSSIRSNYLHWYQQKPGFSPKLLIYRTSNLASGVPARFSGSGSGTSYSLTVATMEAEDVATYYCQQGSSIPLTFGAGTKLELKR	166 mean linear fluorescence intensity					
MB20-8 monoclonal antibody (antibody, V domains shown, Mouse anti-mouse CD20 hybridoma antibody, IgG2b; also called MB20-08) VH: EVQLQESGPDLVKPGASVKISCKASGYTFTDYYMKWVKQSHGKSLDWIGDINPNNGDIIYNQKFEGKATLTVDKSSSTAYMELRSLTSEDSAVYYCARERFAYWGQGTLVTVSA VL: EIVLTQSPTTMAASPGEKITITCSVSSNIRSNYLHWYQQKPGFSPKLLIYRTSNLASGVPARFSGSGSGTSYSLTIGTMKAEDVATYYCQQGSSIPLTFGAGTKLELKR	240 mean linear fluorescence intensity					
MB20-7 monoclonal antibody (antibody, V domains shown, Mouse anti-mouse CD20 hybridoma antibody, IgG2b; also called MB20-07) VH: EVQLQESGPDLVKPGASVKISCKASGYMFTDYYMKWVKQSHGKSLEWIGDINPNNGDTTYNQKFEGKATLTVDKSSSTAYMELRSLTSEDSAVYYCARERFAYWGQGTLVTVSA VL: ELVLTQSPTTKAASPGEKITITCSVSSSIRSNYLHWYQQRPGFSPKLLIYRTSNLASGVPARFSGSGSGTSYSLTIGTMEAEDVATYYCQQGSSLPLTFGAGTKLELKR	525 mean linear fluorescence intensity					
MB20-2 monoclonal antibody (antibody, V domains shown, Mouse anti-mouse CD20 hybridoma antibody, IgG1; also called MB20-02) VH: EVQLQESGPELVKPGASVKISCKASGYMFTDYYIKWVKQSHGKSLEWIGDINPNNGDTIYNQKFKGKATLTVDKSSNTAYMDLRSLTSEDSAVYYCARERFAYWGQGTLVTVSA VL: EIVLTQSPTTMAASPGEKITITCSVSSSIRSNYLHWYQQKPGFSPKLLIYRTSNLASGVPARFSGSGSGTSYSLTVATMEAEDVATYYCQQGSSIPLTFGAGTKLELKR	209 mean linear fluorescence intensity					
1F5 anti-CD20 monoclonal antibody (antibody, V domains shown) VH: QVQLRQPGAELVKPGASVKMSCKASGYTFTSYNMHWVKQTPGQGLEWIGAIYPGNGDTSYNQKFKGKATLTADKSSSTAYMQLSSLTSEDSAVYYCARSHYGSNYVDYFDYWGQGTTLTVSS VL: DIVLSQSPAILSASPGEKVTMTCRASSSLSFMHWYQQKPGSSPKPWIYATSNLASGVPARFSGSGSGTSYSLTISRVEAEDAATYFCHQWSSNPLTFGAGTKLELK		169 mean linear fluorescence intensity	104 mean linear fluorescence intensity	455 mean linear fluorescence intensity	386 mean linear fluorescence intensity	
B9E9 anti-CD20 monoclonal antibody (antibody, V domains shown) VH: QVQLVQSGAELVKPGASVKMSCKASGYTFTSYNMHWVKQTPGQGLEWIGAIYPGNGDTSYNQKFKGKATLTADKSSSTAYMQLSSLTSEDSAVYYCARAQLRPNYWYFDVWGAGTTVTVSS VL: DIVLSQSPAILSASPGEKVTMTCRASSSVSYMHWYQQKPGSSPKPWIYATSNLASGVPARFSGSGSGTSYSLTISRVEAEDAATYYCQQWISNPPTFGAGTKLELK		162 mean linear fluorescence intensity	112 mean linear fluorescence intensity	438 mean linear fluorescence intensity	377 mean linear fluorescence intensity	
